In US20250136677A1 (ZOETIS SERVICES, published 2025):

Biological target: T1, human IL-31 (human, UniProt Q6EBC2 24-164)
T1 sequence: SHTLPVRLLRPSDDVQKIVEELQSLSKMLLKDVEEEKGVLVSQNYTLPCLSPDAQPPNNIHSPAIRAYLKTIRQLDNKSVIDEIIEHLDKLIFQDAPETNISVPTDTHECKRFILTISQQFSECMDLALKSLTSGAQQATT
Test: SPR (Biacore), IL-31 surface, single antibody concentration

B1: mouse anti IL-31 antibody 15H05 (antibody, mouse IgG1, kappa)
heavy: QVQLQQSAAELARPGASVKMSCKTSGYTFTSYTIHWIKQRPGQGLEWIGNINPTSGYTENNQRFKDKTTLTVDRSSNTAYLQLHSLTSEDSAVYFCARWGFKYDGEWSFDVWGAGTTVTVSSKTTPPSVYPLAPGSAAQTNSMVTLGCLVKGYFPEPVTVTWNSGSLSSGVHTFPAVLESDLYTLSSSVTVPSSPRPSETVTCNVAHPASSTKVDKKIVPRDCGCKPCICTVPEVSSVFIFPPKPKDVLTITLTPKVTCVVVDISKDDPEVQFSWFVDDVEVHTAQTQPREEQFNSTFRSVSELPIMHQDWLNGKEFKCRVNSAAFPAPIEKTISKTKGRPKAPQVYTIPPPKEQMAKDKVSLTCMITDFFPEDITVEWQWNGQPAENYKNTQPIMNTNGSYFVYSKLNVQKSNWEAGNTFTCSVLHEGLHNHHTEKSLSHSPGK
light: DIQMNQSPSSLSASLGDTITVTCRASQGISIWLSWYQQKPGNIPKVLINKASNLHIGVPPRFSGSGSGTHFTLTITSLQPEDIATYYCLQSQTYPLTFGGGTKLEINADAAPTVSIFPPSSEQLTSGGASVVCFLNNFYPKDINVKWKIDGSERQNGVLNSWTDQDSKDSTYSMSSTLTLTKDEYERHNSYTCEATHKTSTSPIVKSFNRNEC
notes: Mouse hybridoma antibody, IgG1 kappa; also called Mu-15H05; MU-15H05
B1: no binding.
